Results: article PMC2742444

Legend:
SOS1 = SOS1 (UniProt Q07889); experiment: anti-FLAG IP, SRM mass spectrometry; conditions: reference: wild type, no EGF
VAV2 = VAV2 (UniProt P52735); experiment: anti-FLAG IP, SRM mass spectrometry; conditions: reference: wild type, no EGF

fold change (SOS1): 1.91 fold | fold change (VAV2): 1.4 fold
Substance: EGFR (chimeric EGFR-FLAG-GFP) (from UniProt P00533) wild type, EGF 15 min
